Source: the RNAGym collection of RNA variant scans (doi:10.1073/pnas.2313332121)

B1: TPR t1 (parent)
chain: GACCAAUCUGCCCUCAGAGCUCGAGAACAUCUUCGGAUGCAGAGGAGGCAGGCUUCGGUGGCGCGAUAGCGCCAACGUCCUCAACCUCCAAUGCAUCCCACCACAUGAUGAUGCCUGAAGAGCCUUGGUUUUUUG

Variants of: B1
Assay: polymerase ribozyme fitness, log enrichment relative to wild type (log ratio); higher = more active; in vitro selection for triplet polymerase activity
In short: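 Mutant libraries were PCR-built and transcribed for each subunit of a heterodimeric triplet polymerase ribozyme and selected for one round in triplicate at −7 °C, frozen, before gel excision of extended constructs and streptavidin-bead capture. Input and output libraries were Illumina-sequenced, keeping genotypes with ≥10 input reads and ≥1 read per output. Fitness is a logarithmic ratio of genotype to wild-type enrichment, in base 2, using inverse-variance-weighted replicate averages.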

Point of comparison: C13G U87C A121C, “polymerase ribozyme fitness (log ratio)” value 0.326. Against it:
- C13G G47U C114A — lower, -4.31
- C13G G63C U112C G127C U129A — lower, -2.13
- C13G C72A C82A U96G A100U C115A — lower, -3.76
- C13U C62U C85A U106A — lower, -1.41
- C13G U14A C64U C86A — lower, -3.76
- C13U G23A — lower, -5.12
- C13U G17U G63U U78C — lower, -3.99
- U14G C70G U116G — lower, -5.13
- C13G G47A — lower, -2.67
- C13U G47U G135U — lower, -2.07
- C13G A26G C49A U96A — lower, -5.63
- C13U A46C — lower, 0.0656
- C13U G44U G58A U59A G61A C62U — lower, -2.38
- C13G A41U C97U — lower, -3.81
- C13U U38G G63U C79G C88U C99G G110U G113U — lower, -6.9
- C13G C22U G39U C53G — lower, -5.48
- C13G C40G — lower, -0.654
- U14C A46U G60C U116C G117A — lower, -5.66
- U14A A111G U130A — lower, -3.57
- C13U G17U C31U U106A C115U — lower, -1.65
- U14C G93A G120C — lower, -1.52
- C13U U30C A46U C73U — lower, -5.98
- C13U A50G C70U C79U C86G G117A — lower, -2.99
- C13G G61A — lower, -1.99
- C13G G61C — lower, -2.94
- C13A U130A — lower, -2.56
- C13U A26U G69C — lower, -4.28
- C13U A50G — lower, -0.113
- C13G G25C C49A C98U U112A C115G — lower, -7.45
- C13U G25C C62G C82A C86A C102U U109C — lower, -7.42
- U14G G61U — lower, -1.11
- C13G C53G C72U — lower, -1.34
- C13A G48A — lower, -2.23
- C13U A24G A50U — lower, -1.91
- U14A G48U — lower, -2.9
- C13U C20U G61U C114A — within 0.2 log units, 0.523
- C13U C89A — lower, -1.08
- C13U A105U C115A A121U — higher, 0.733
- C13U A37C C40A C73A G93A G117U — lower, -3.4
- C13G A66U C114A — lower, -4.3
- C13G C20U G93A C124A — lower, -1.04
- C13U C20U U106A G120A — lower, -1.72
- C13U C72U U129G — lower, -0.856
- U14G G44A C72U C104U — lower, -2.42
- C13G G58U G60C — lower, -2.45
- U14C U54G — lower, -1.76
- U14C G17C C20A A24U A43C C85U A111G — lower, -6.11
- C13G C28G U96A — lower, -4.5
- C13U C62U — lower, -0.0202
- C13U G48U — lower, -1.37
- C13U A18U G42C U87A C124U — lower, 0.0751
- C13U G45A — lower, -0.438
- C13G G52C C86U A118G — lower, -5.59
- C13G G51C G69U U78G — lower, -2.43
- C13G C22U G113A — lower, -4.71
- U14G U21C — lower, -2.74
- U14A C114U — lower, -5.22
- U14C G36C U133A — lower, -4.29
- C13U C64U A74U C82G — lower, -1.47
- C13U G51A U55A C79G C89A — lower, -5.95
- U14A U81A — lower, -4.19
- C13U G17U C49U A50C — lower, -2.06
- C13G C82U — lower, -2.11
- U14G G45C C94A C123U — lower, -3.17
- C13U C64U U92C U96C — lower, -1.14
- C13U A29G G52A C102U — lower, -4.34
- U14G A68G U112G — lower, -5.15
- C13U G128C — lower, -1.81
- C13G C53U — lower, -1.87
- U14G U55C C70A — lower, -3.8
- C13G G60C G77U C101A G120C — lower, -1.78
- C13G C56G C101U — lower, -2.67
- C13G G71C U125A G128C — lower, -3.83
- C13U C88U — higher, 0.907
- C13U C56G G58C — lower, -0.174
- C13U C98U — lower, -1.1
- C13G G71A — lower, -2.22
- C13G G71C — lower, -3.5
- C13U C80U A84C C124U — higher, 1.02
- C13U C101U — lower, -0.0534
- C13U C101A — lower, -0.869
- U14G G47C C70U C85G G117A — lower, -7.02
- C13U A18G C49G G77U — lower, -4.43
- C13U G60A A100U C101U C104U A121C — higher, 1.93
- C13U G61C A100U A111G G113A — lower, -5.12
- C13G C40A U133A — lower, -2.76
- U14G C40A G71U A121G G127U — within 0.2 log units, 0.306
- C13U A18G G23A A46U A111G — lower, -7.19
- C13G C22G C53U G60A U92C A118U — lower, -5.33
- C13G A37U C53A C79A U87C U129C — lower, -5.34
- C13U U14C G48U — lower, -3.25
- C13G G45U G71U C85A — lower, -4.6
- C13U U14G C80U C115A — lower, -3.73
- C13G C94U — lower, -1.78
- C13G A37U G48A C49U C85U G93C G120U — lower, -1.53
- U14A G44C G61U C85G U96C G113U — lower, -6.21
- C13G C85A U112C — lower, -1.28
- C13U A29U C56A G65A G77A — lower, -6.34
- C13U C53A C72A A103U G127U — lower, -5.25
- C13U C22G A41U U78G U81C G122A — lower, -4.41
- C13G C15U — lower, -2.51
- C13G C15A — lower, -2.5
- U14A G71A U130A — lower, -3.52
- U14G U87G G127C — lower, -4.35
- C13U U132C — lower, 0.0693
- C13U U131A — lower, -0.274
- C13U G71U U78C — lower, 0.0986
- C15A A29U G69A G120C — lower, -1.85
- C13G C15U G58C — lower, -3.58
- C13U G19A A41U G44U G69U — lower, -2.81
- C13U C88A A90C — lower, -1.03
- C13U C123A — higher, 1.1
- U14A G71C — lower, -3.09
- C13U G45U G117U — lower, -2.03
- U14A C123U G127A — lower, -0.509
- C13U A50G G52A G69A G77U — lower, -2.68
- C13U A16U C56U U129G — lower, -0.207
- U14C G61U A75C A105C — lower, -3.69
- C13U G69U C94U — within 0.2 log units, 0.248
- C13U C20U C72A C76A — lower, -2.68
- U14G G45C G110U — lower, -3.81
- C13A G48A G61A U106A A118G — lower, -2.04
- C13G A16U C82A C89G — lower, -4.33
- U14A A24G A119G — lower, -4.72
- C13U U92A — lower, -2.13
- C13U C20U G44U G47U — lower, -3.8
- C13U C82G C99U — lower, -3.96
- U14G C72A — lower, -2.6
- U14G C72G — lower, -2.44
- U14G C72U — lower, -1.52
- C13U C15G A18U A66U — lower, -5.7
- C13U G44U A50G C53U C56U G93U C124G — lower, -1.13
- C13U A18G A46C U96C A100C C123G — lower, -4.57
- C13G G52A C72G C85A — lower, -4.46
- C13U G42U C56U C73U C114G C123A — lower, -2.2
- U14C G113A — lower, -3.18
- U14A C40U C64U A91U — lower, -4.67
- U14C G42C U92G — lower, -4.23
- U14G C82U G93C — lower, -2.71
- U14G U38G — lower, -3.56
- U14C G61A G110C — lower, -5.14
- U14C G36U A41U — lower, -5.76
- U14G G71A — lower, -1.59
- C13G C72U A119U — within 0.2 log units, 0.275
- U14G G48U C94A C101U G120C — lower, -2.13
- C13U G42U G48A U129A — lower, -2.82
- U14G A50C C101A — lower, -3.99
- U14A C72G — lower, -2.35
- C13G G35C G47A C80U A105C G107U G117A — lower, -7.66
- C13U A41C G52U G60C G120A U126G — lower, -1.71
- C13A U38C C49G G61U U106G C115G G135C — lower, -6
- C13U C15U U59A A84C A90C U106G U130A — lower, -4.77
- C13G U112G — lower, -0.767
- C13G G48U C53A U59G — lower, -1.72
- C13G C85G C86A — lower, -3.16
- C13U A29U U78A C80U U96G U116G G120U G122A — lower, -5.15
- C13G C15G A26U C94A C114U — lower, -6.55
- C13G A18G — lower, -5.42
- C13U A18G G52C — lower, -3.22
- C13U A18U A118G — lower, -1.84
- C13G U54G — lower, -1.83
- C13U C49U U55G U92A — lower, -4.11
- C13U A41G A43C U87C G113A G122U — lower, -1.25
- C13A G71A A90G — lower, -2.51
- C13U G113A — lower, 0.0113
- C13G A24G A27G C56G A111C — lower, -7.83
